Data: publication PMC4848090, “Mechanistic insight into a peptide hormone signaling complex mediating floral organ abscission” (eLife, 2016)
Non-standard residues stand in square brackets, D forms with d. No end group written: not given here. Hyp = O=C(O)[C@@H]1C[C@@H](O)CN1

T1: Arabidopsis thaliana HAESA ectodomain (residues 20–620) (Arabidopsis thaliana, UniProt P47735 20-620, N-glycans (glycoprotein of ~75 kDa))
T1 construct: HAESA, leucine-rich repeat receptor kinase, Arabidopsis thaliana, ectodomain residues 20–620; Synthetic gene, codon optimized; the vector provides an azurocidin signal peptide for secretion; also called HAESA LRR domain; HAESA LRR ectodomain; not shown: Strep, C-terminal, cleaved; 9xHis, C-terminal, cleaved
T1 sequence (looked up): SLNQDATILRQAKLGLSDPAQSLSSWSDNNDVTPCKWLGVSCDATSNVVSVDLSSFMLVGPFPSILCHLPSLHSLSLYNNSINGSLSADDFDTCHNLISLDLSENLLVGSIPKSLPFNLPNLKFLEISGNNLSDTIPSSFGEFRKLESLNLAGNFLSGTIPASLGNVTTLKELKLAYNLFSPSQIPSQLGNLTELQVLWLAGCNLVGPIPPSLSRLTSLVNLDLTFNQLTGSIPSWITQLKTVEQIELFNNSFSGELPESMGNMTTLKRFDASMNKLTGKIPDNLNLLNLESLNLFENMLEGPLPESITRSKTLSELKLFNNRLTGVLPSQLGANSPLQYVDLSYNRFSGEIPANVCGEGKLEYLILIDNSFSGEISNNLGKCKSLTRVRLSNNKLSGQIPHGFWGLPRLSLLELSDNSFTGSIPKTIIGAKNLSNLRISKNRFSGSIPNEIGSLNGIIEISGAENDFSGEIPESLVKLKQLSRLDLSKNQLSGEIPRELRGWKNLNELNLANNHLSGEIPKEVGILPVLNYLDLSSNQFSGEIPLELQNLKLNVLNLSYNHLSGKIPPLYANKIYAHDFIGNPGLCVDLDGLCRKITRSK

T2: 1:1 HAESA – SERK1 ectodomain mixture (Arabidopsis thaliana, UniProt P47735 20-620; Q94AG2 24-213, Asn115→Asp | Asn163→Gln, N-glycans)
T2 construct: HAESA, Arabidopsis thaliana, ectodomain residues 20–620; SERK1, Arabidopsis thaliana, ectodomain residues 24–213; they are the content of the ITC cell into which the peptides were titrated; also called HAESA/SERK1 protein solution; HAESA - SERK1 mixture; source: Trichoplusia ni Tnao38 cells (baculovirus), each ectodomain expressed and purified separately, then mixed 1:1; not …
T2 sequence (looked up) 1: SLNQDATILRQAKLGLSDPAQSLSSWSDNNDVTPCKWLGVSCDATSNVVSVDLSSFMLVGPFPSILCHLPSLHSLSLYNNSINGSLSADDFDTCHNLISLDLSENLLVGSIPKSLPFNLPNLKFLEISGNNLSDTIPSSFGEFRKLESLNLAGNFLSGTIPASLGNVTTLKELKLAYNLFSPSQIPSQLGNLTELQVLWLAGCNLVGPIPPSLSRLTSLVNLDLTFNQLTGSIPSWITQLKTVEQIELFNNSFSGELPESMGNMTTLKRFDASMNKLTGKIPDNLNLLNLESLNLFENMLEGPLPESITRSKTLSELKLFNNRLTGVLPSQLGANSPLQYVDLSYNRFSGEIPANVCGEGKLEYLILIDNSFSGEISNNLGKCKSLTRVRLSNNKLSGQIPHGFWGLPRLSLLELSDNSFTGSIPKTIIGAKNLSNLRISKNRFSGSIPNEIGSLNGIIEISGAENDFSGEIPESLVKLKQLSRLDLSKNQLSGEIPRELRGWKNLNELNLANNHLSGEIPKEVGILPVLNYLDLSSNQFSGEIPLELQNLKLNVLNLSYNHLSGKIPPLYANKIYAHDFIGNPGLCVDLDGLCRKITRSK
T2 sequence (looked up) 2: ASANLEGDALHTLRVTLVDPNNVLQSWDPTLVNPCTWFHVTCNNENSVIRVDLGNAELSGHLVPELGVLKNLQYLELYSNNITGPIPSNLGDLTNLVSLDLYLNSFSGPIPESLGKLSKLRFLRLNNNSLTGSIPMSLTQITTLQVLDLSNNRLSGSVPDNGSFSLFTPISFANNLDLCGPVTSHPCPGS

T3: Arabidopsis thaliana SERK1 ectodomain (residues 24–213, Asn115→Asp and Asn163→Gln) (Arabidopsis thaliana, UniProt Q94AG2 24-213, Asn115→Asp | Asn163→Gln)
T3 sequence: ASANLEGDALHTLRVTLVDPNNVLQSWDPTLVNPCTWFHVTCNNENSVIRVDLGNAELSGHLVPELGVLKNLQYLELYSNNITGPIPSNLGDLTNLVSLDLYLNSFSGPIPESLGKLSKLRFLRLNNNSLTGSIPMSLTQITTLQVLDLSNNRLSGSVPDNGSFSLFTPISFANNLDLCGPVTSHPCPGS

T4: 1:1 HAESA – SERK1 ectodomain mixture (Arabidopsis thaliana, UniProt P47735 20-620; Q94AG2 24-213, Asn115→Asp | Asn163→Gln, N-glycans)
T4 sequence 1: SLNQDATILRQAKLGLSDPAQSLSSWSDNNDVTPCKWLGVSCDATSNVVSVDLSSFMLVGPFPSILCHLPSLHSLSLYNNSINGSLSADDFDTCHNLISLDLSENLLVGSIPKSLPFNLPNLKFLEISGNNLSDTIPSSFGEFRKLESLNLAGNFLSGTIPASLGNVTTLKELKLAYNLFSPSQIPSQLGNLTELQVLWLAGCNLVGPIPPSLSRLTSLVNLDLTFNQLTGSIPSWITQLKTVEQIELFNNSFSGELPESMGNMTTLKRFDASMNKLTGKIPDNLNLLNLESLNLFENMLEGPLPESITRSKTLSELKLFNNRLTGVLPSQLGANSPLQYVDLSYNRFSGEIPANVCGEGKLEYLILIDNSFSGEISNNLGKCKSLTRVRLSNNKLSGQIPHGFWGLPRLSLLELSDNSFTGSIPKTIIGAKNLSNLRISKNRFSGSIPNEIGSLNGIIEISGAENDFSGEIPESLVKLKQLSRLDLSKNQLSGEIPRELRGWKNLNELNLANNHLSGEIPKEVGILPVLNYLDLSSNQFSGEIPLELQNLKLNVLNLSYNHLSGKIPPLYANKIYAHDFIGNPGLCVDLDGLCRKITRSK
T4 sequence 2: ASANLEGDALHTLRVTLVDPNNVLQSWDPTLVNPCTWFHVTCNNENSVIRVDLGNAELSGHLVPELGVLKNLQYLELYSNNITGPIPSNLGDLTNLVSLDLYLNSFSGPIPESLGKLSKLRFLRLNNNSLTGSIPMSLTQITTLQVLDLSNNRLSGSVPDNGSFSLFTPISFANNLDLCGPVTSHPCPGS

B1: synthetic PKGV-IDA peptide YPKGVPIPPSA-Hyp-SKRHN (peptide)
peptide: YPKGVPIPPSA[Hyp]SKRHN
notes: N-terminal Tyr; INFLORESCENCE DEFICIENT IN ABSCISSION (IDA), Arabidopsis thaliana; Hyp written as P; also called N-terminally extended IDA peptide; source: synthetic peptide
B2: synthetic Lys66/Arg67 → Ala mutant IDA peptide (peptide)
peptide: YVPIPPSA[Hyp]SAAHN
notes: INFLORESCENCE DEFICIENT IN ABSCISSION (IDA), Arabidopsis thaliana; as the IDA stretch of m3 with the two changes; also called IDA K66A/R67A; IDA K66A/R66A; source: synthetic peptide
B3: synthetic IDL1 peptide LVPPSG-Hyp-SMRHN (crystal soak) (peptide)
peptide: LVPPSG[Hyp]SMRHN
notes: IDA-LIKE 1 (IDL1), Arabidopsis thaliana; Hyp written as P; source: synthetic peptide
B4: Arabidopsis thaliana HAESA ectodomain (residues 20–620) (domain or fragment)
chain: SLNQDATILRQAKLGLSDPAQSLSSWSDNNDVTPCKWLGVSCDATSNVVSVDLSSFMLVGPFPSILCHLPSLHSLSLYNNSINGSLSADDFDTCHNLISLDLSENLLVGSIPKSLPFNLPNLKFLEISGNNLSDTIPSSFGEFRKLESLNLAGNFLSGTIPASLGNVTTLKELKLAYNLFSPSQIPSQLGNLTELQVLWLAGCNLVGPIPPSLSRLTSLVNLDLTFNQLTGSIPSWITQLKTVEQIELFNNSFSGELPESMGNMTTLKRFDASMNKLTGKIPDNLNLLNLESLNLFENMLEGPLPESITRSKTLSELKLFNNRLTGVLPSQLGANSPLQYVDLSYNRFSGEIPANVCGEGKLEYLILIDNSFSGEISNNLGKCKSLTRVRLSNNKLSGQIPHGFWGLPRLSLLELSDNSFTGSIPKTIIGAKNLSNLRISKNRFSGSIPNEIGSLNGIIEISGAENDFSGEIPESLVKLKQLSRLDLSKNQLSGEIPRELRGWKNLNELNLANNHLSGEIPKEVGILPVLNYLDLSSNQFSGEIPLELQNLKLNVLNLSYNHLSGKIPPLYANKIYAHDFIGNPGLCVDLDGLCRKITRSK
modifications: N-glycans (glycoprotein of ~75 kDa)
B5: synthetic IDA peptide YVPIPPSA-Hyp-SKRHN (peptide)
peptide: YVPIPPSA[Hyp]SKRHN
notes: N-terminal Tyr residue added to allow for peptide quantification by UV absorbance; INFLORESCENCE DEFICIENT IN ABSCISSION (IDA), Arabidopsis thaliana; Hyp written as P; Used in ITC and for the HAESA-IDA-SERK1 complex that was crystallised; also called wild-type IDA; IDA wild-type; source: synthetic peptide

Key:
[1] = target: T1, Arabidopsis thaliana HAESA ectodomain …; assay: crystal structure; apo HAESA ectodomain crystals soaked in crystallization buffer with 15 mM synthetic peptide; conditions: both partners purified
[2] = target: B4; assay: ITC
[3] = target: T2, 1:1 HAESA – SERK1 ectodomain mixture; assay: ITC; 150 μM wild-type or mutant IDA peptide in the syringe, 10 μM of a 1:1 HAESA – SERK1 protein mixture in the cell; 25°C; 20 mM citric acid pH 5.0, 100 mM NaCl; conditions: both partners purified
[4] = target: T3, Arabidopsis thaliana SERK1 ectodomain …; assay: ITC; in presence of IDA
[5] = target: T4, 1:1 HAESA – SERK1 ectodomain mixture; assay: ITC; HAESA - SERK1 mixture in cell

Binder | binding result [1] | Kd [2] [µM] | other results
B1 | binds | 25 | 
B2 |  |  | fold reduced binding affinity against wild-type IDA [3]: 10 fold
B3 | binds |  | 
B4 |  |  | Kd [4]: 0.075 µM
B5 |  |  | fold higher binding affinity than for HAESA alone [3]: ~60 fold; Kd [5]: 0.35 µM
YLVPPSG[Hyp]SMRHN [synthetic IDL1 peptide YLVPPSG-Hyp-SMRHN (ITC)] |  | 135 | 
